# Reference: patent US20060259987A1 (UNIVERSITY OF UTAH RESEARCH FOUNDATION, published 2006)
# Numbering of substitutions follows the chain as printed. Numbers in names are those of the source.
# T1: human neutrophil elastase (human, UniProt P08246 30-247, limits assumed)
# T1 sequence (looked up): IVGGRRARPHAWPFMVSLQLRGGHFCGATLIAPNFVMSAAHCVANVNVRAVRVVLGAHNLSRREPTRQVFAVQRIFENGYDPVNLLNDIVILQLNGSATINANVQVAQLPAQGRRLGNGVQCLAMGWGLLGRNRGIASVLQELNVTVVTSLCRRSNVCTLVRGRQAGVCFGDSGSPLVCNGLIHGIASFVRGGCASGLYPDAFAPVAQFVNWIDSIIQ
# T2: human neutrophil cathepsin G (human, UniProt P08311 21-244)
# T2 sequence (looked up): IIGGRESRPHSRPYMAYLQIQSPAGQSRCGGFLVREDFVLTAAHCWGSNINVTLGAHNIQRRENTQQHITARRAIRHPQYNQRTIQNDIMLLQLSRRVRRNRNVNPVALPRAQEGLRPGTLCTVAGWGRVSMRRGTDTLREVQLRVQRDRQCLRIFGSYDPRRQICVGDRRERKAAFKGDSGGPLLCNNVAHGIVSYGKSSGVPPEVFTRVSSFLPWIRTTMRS
# B1: leai(bv) (other, human, UniProt P01008 33-464, looked up)
# chain: HGSPVDICTAKPRDIPMNPMCIYRSPEKKATEDEGSEQKIPEATNRRVWELSKANSRFATTFYQHLADSKNDNDNIFLSPLSISTAFAMTKLGACNDTLQQLMEVFKFDTISEKTSDQIHFFFAKLNCRLYRKAAKSSKLVSANRLFGDKSLTFNETYQDISELVYGAKLQPLDFKENAEQSRAAINKWVSNKTEGRITDVIPSEAINELTVLVLVNTIYFKGLWKSKFSPENTRKELFYKADGESCSASMMYQEGKFRYRRVAEGTQVLELPFKGDDITMVLILPKPEKSLAKVEKELTPEVLQEWLDELEEMMLVVHMPRFRIEDGFSLKEQLQDMGLVDLFSPEKSKLPGIVAEGRDDLYVSDAFHKAFLEVNEEGSEAAASTALEAIGRSLNPNRVTFKANRPFLVFIREVPLNTIIFMGRVANPCVK
# notes: mature; also called LEAI (parent)
# B2: LEAI.472 (other)
# chain: SPVDICTAKPRDIPMNPMCIYRSPEKKATEDEGSEQKIPEATNRRVWELSKANSRFATTFYQHLADSKNDNDNIFLSPLSISTAFAMTKLGACNDTLQQLMEVFKFDTISEKTSDQIHFFFAKLNCRLYRKANKASKLVSANRLFGDKSLTFNETYQDISELVYGAKLQPLDFKENAEQSRAAINKWVSNKTEGRITDVIPSEAINELTVLVLVNTIYFKGLWKSKFSPENTRKELFYKADGESCSASMMYQEGKFRYRRVAEGTQVLELPFKGDDITMVLILPKPEKSLAKVEKELTPEVLQEWLDELEEMMLVVHMPRFRIEDGFSLKEQLQDMGLVDLFSPEKSKLPGIVAEGRDDLYVSDAFHKAFLEVNEEGSEAAASTALEANGRSLNPNRVTFKANRPFLVFIREVPLNTIIFMGRVANPCVK
# B3: LEAI.472 (other)
# chain: B2 chain
# notes: Recombinant human ATIII variant made in Drosophila S2 cells on the S137A background
# B4: LEAI.474 (other)
# chain: B2 chain with N389Q
# notes: Recombinant human ATIII variant made in Drosophila S2 cells on the S137A background; also called DES.LEAI.474; LEAQ parent
# Assays:
# [1] = biological target: T3, thrombin (human, UniProt P00734 328-622); assay: Kapp IIa/hep relative to plasma.at3
# [2] = biological target: T4, factor Xa (human, UniProt P00742 41-179; P00742 235-488, limits assumed); assay: Kapp fXa/hep relative to plasma.at3
# T4 construct: also called fXa; human factor Xa
# [3] = biological target: T3, thrombin; assay: Kapp IIa/prog relative to plasma.at3
# [4] = biological target: T4, factor Xa; assay: Kapp fXa/prog relative to plasma.at3
# [5] = biological target: T3, thrombin; assay: thrombin prog: pseudo-first-order loss of chromogenic activity, no heparin, 25 C
# Method: (§1) Polybrene was added with the chromogenic substrate to quench the heparin dependent reaction. […] This was plotted against the heparin concentration to calculate the second-order rate constant for the inhibition by the heparin-ATIII complex, (Kₕₑₚ) from the equation Kobs=Kₕₑₚ[H]ₒ([AT]ₒ/[AT]ₒ+Kd)+Kuncat[AT]ₒ
# [6] = biological target: T4, factor Xa; assay: factor Xa prog: pseudo-first-order loss of chromogenic activity, no heparin, 25 C
# Method: as §1
# [7] = biological target: T3, thrombin; assay: cell-based or functional assay
# [8] = biological target: T4, factor Xa; assay: cell-based or functional assay
# [9] = biological target: T1, human neutrophil elastase; assay: cell-based or functional assay
# [10] = biological target: T5, human factor Xa (human, UniProt P00742 41-179; P00742 235-488, limits assumed); assay: residual enzyme activity against time, pseudo-first-order, with heparin
# T5 construct: the active enzyme is a two-chain form of it; also called fXa
# Method: Polybrene was added with the chromogenic substrate to quench the heparin dependent reaction. The observed pseudo-first-order rate constants were calculated for each heparin (1 nM-5 nM) concentration from the slope of the log of residual proteinase activity vs. time. This was plotted against the heparin concentration to calculate the second-order rate constant for the inhibition by the heparin-ATIII complex, (Kₕₑₚ) from the equation Kobs=Kₕₑₚ[H]ₒ([AT]ₒ/[AT]ₒ+Kd)+Kuncat[AT]ₒ
# [11] = biological target: T6, human thrombin (human, UniProt P00734 328-622); assay: residual enzyme activity against time, pseudo-first-order, progressive (no heparin)
# [12] = biological target: T5, human factor Xa; assay: as above
# [13] = biological target: T6, human thrombin; assay: cell-based or functional assay
# [14] = biological target: T5, human factor Xa; assay: cell-based or functional assay
# [15] = biological target: T1, human neutrophil elastase; assay: cell-based or functional assay; remark: listed apart in the source
# [16] = biological target: T2, human neutrophil cathepsin G; assay: cell-based or functional assay
# [17] = biological target: T6, human thrombin; assay: thrombin inhibition rate in the absence of heparin
# [18] = biological target: T6, human thrombin; assay: thrombin inhibition rate in the presence of heparin (HAH)
# T4 sequence (P00742 41-179 limits assumed, chain 1 of 2): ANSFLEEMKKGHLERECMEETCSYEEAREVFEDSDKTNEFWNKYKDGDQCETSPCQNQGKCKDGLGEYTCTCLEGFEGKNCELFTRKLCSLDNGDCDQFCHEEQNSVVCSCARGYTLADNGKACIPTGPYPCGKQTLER
# T4 sequence (P00742 235-488 limits assumed, chain 2 of 2): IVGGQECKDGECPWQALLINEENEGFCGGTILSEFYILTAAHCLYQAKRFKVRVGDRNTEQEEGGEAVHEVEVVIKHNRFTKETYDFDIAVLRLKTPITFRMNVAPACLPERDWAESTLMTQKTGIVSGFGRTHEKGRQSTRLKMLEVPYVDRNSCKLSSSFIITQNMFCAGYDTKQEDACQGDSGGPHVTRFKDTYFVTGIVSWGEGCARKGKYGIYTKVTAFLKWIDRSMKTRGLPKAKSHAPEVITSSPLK
# T5 sequence (P00742 41-179 limits assumed, chain 1 of 2): as the sequence (P00742 41-179 limits assumed, chain 1 of 2) above
# T5 sequence (P00742 235-488 limits assumed, chain 2 of 2): as the sequence (P00742 235-488 limits assumed, chain 2 of 2) above
binder,measurement,setting,value
B1,Kapp as a percentage of the plasma ATIII value,[1],159%
same,Kapp as a percentage of the plasma ATIII value,[2],192%
same,Kapp as a percentage of the plasma ATIII value,[3],75%
same,Kapp as a percentage of the plasma ATIII value,[4],457%
same,kapp (apparent second-order inhibition rate constant),[5],5280 M⁻¹ s⁻¹
same,kapp (apparent second-order inhibition rate constant),[6],9550 M⁻¹ s⁻¹
B2,IC50 IIa/UFH; HCA #3,[7],0.11 µM
same,IC50 IIa/UFH; HCA #4,[7],0.2 µM
same,rsd. IIa catG; CA #15; stg1 conc 200,[7],1%
same,rsd. IIa hne; CA #15; stg1 conc 200,[7],21%
same,rsd. IIa no add; CA #15; stg1 conc 200,[7],0%
same,IC50 fXa/UFH; HCA #3,[8],0.015 µM
same,IC50 fXa/UFH; HCA #4,[8],0.038 µM
same,rsd. Xa catG; CA #15; stg1 conc 200,[8],0%
same,rsd. Xa hne; CA #15; stg1 conc 200,[8],1%
same,rsd. Xa no add; CA #15; stg1 conc 200,[8],0%
same,Kapp as a percentage of the plasma ATIII value,[1],3%
same,Kapp as a percentage of the plasma ATIII value,[2],52%
same,Kapp as a percentage of the plasma ATIII value,[3],4%
same,Kapp as a percentage of the plasma ATIII value,[4],86%
same,kapp (apparent second-order inhibition rate constant),[5],278 M⁻¹ s⁻¹
same,kapp (apparent second-order inhibition rate constant),[6],1800 M⁻¹ s⁻¹
B3,"halflife, min (HNE/hep)",[9],30.1 min
same,kapp (apparent second-order inhibition rate constant),[10],298000 M⁻¹ s⁻¹
same,kapp (apparent second-order inhibition rate constant),[11],278 M⁻¹ s⁻¹
same,kapp (apparent second-order inhibition rate constant),[12],1800 M⁻¹ s⁻¹
B4,"halflife, min (HNE/hep)",[9],38.4 min
same,IC50 IIa/UFH (HCA #5),[13],0.065 µM
same,IC50 IIa/UFH (HCA #6),[13],0.055 µM
same,IC50 IIa/UFH; HCA #2,[13],0.065 µM
same,IC50 IIa/UFH; HCA #3,[13],0.047 µM
same,IC50 IIa/UFH; HCA #4,[13],0.05 µM
same,"rsd IIa, no add (CA #51, stg 1 conc 200)",[13],2%
same,"rsd IIa, no add (CA #52, stg 1 conc 200)",[13],4%
same,IC50 fXa/UFH (HCA #5),[14],0.023 µM
same,IC50 fXa/UFH (HCA #6),[14],0.033 µM
same,IC50 fXa/UFH; HCA #2,[14],0.02 µM
same,IC50 fXa/UFH; HCA #3,[14],0.016 µM
same,IC50 fXa/UFH; HCA #4,[14],0.013 µM
same,"rsd Xa, no add (CA #51, stg 1 conc 200)",[14],-1%
same,"rsd Xa, no add (CA #52, stg 1 conc 200)",[14],2%
same,"rsd IIa, HNE (CA #51, stg 1 conc 200)",[15],2%
same,"rsd IIa, HNE (CA #52, stg 1 conc 200)",[15],3%
same,"rsd Xa, HNE (CA #51, stg 1 conc 200)",[15],-3%
same,"rsd Xa, HNE (CA #52, stg 1 conc 200)",[15],3%
same,"rsd IIa, catG (CA #51, stg 1 conc 200)",[16],2%
same,"rsd IIa, catG (CA #52, stg 1 conc 200)",[16],3%
same,"rsd Xa, catG (CA #51, stg 1 conc 200)",[16],-2%
same,"rsd Xa, catG (CA #52, stg 1 conc 200)",[16],1%
same,"Kapp, thrombin progressive",[17],2700 M⁻¹ s⁻¹
same,"Kapp, thrombin HAH",[18],2e+06 M⁻¹ s⁻¹
same,kapp (apparent second-order inhibition rate constant),[10],1.25e+06 M⁻¹ s⁻¹
same,kapp (apparent second-order inhibition rate constant),[11],2680 M⁻¹ s⁻¹
same,kapp (apparent second-order inhibition rate constant),[12],10700 M⁻¹ s⁻¹
